B1: PRO4914 (antibody, human IgG1, kappa)
heavy 1: QQVVESGGGLVQPGGSLRLSCAVSGIDLNSYAMTWVRQAPGKGLEWIGYIGSASSTYYASWASGRFTISKDNSKNTVYLQMNSLRAEDTAVYFCARGSTYINIWGQGTLVTVSSASVAAPSVFIFPPSDEQLKSGTASVVCLLNNFYPREAKVQWKVDNALQSGNSQESVTEQDSKDSTYSLSSTLTLSKADYEKHKVYACEVTHQGLSSPVTKSFNRGECDKTHTCPPCPAPELLGGPSVFLFPPKPKDTLMISRTPEVTCVVVDVSHEDPEVKFNWYVDGVEVHNAKTKPREEQYNSTYRVVSVLTVLHQDWLNGKEYKCKVSNKALPAPIEKTISKAKGQPREPQVYTLPPCREEMTKNQVSLSCAVKGFYPSDIAVEWESNGQPENNYKTTPPVLDSDGSFFLVSKLTVDKSRWQQGNVFSCSVMHEALHNHYTQKSLSLSPGKGGGGSGGGGSDVQMTQSPSSLSASVGDRVTITCQASQSIGSNLAWYQQKPGKPPKLLIYKGGTLESGVPSRFSGSGSGTDFTLTISSLQPEDFATYYCQSTAGSSRSGNYGYVFGCGTKVTVLGGGGGSGGGGSGGGGSGGGGSQQLVESGGGLVQPGGSLRLSCAASGFSFTNNYYMCWVRQAPGKCLEWIACMLVGAWGNTYYASWANGRFTISKDNSKNTVYLQMNSLRAEDSAVYFCARARDYTWTLGGDPETSGFNLWGQGTLVKVSS
heavy 2: not shown
light 1: DVQMTQSPSSLSASVGDRVTITCQASQSISSWVSWYQQKPGKPPKLLIYRGGYLESGVPSRFSASGSGTDFTLTISSLQPEDFATYYCQSTDSSTYGGAFGQGTKVEIKSSASTKGPSVFPLAPSSKSTSGGTAALGCLVKDYFPEPVTVSWNSGALTSGVHTFPAVLQSSGLYSLSSVVTVPSSSLGTQTYICNVNHKPSNTKVDKKVEPKSC
light 2: DIQMTQSPSSLSASVGDRVTITCQASQSIGTYLAWYQQKPGKPPKLLIYRGGILASGVPSRFSGSGSGTDFTLTISSLQPEDFATYYCQSNFYSDSTTIGPNAFGQGTKVEIKRTVAAPSVFIFPPSDEQLKSGTASVVCLLNNFYPREAKVQWKVDNALQSGNSQESVTEQDSKDSTYSLSSTLTLSKADYEKHKVYACEVTHQGLSSPVTKSFNRGEC
B2: PRO4682 (antibody, human IgG1, kappa)
chain: QQVVESGGGLVQPGGSLRLSCAVSGIDLNSYAMTWVRQAPGKGLEWIGYIGSASSTYYASWASGRFTISKDNSKNTVYLQMNSLRAEDTAVYFCARGSTYINIWGQGTLVTVSSASTKGPSVFPLAPSSKSTSGGTAALGCLVKDYFPEPVTVSWNSGALTSGVHTFPAVLQSSGLYSLSSVVTVPSSSLGTQTYICNVNHKPSNTKVDKKVEPKSCDKTHTCPPCPAPELLGGPSVFLFPPKPKDTLMISRTPEVTCVVVDVSHEDPEVKFNWYVDGVEVHNAKTKPREEQYNSTYRVVSVLTVLHQDWLNGKEYKCKVSNKALPAPIEKTISKAKGQPREPQVYTLPPCREEMTKNQVSLSCAVKGFYPSDIAVEWESNGQPENNYKTTPPVLDSDGSFFLVSKLTVDKSRWQQGNVFSCSVMHEALHNHYTQKSLSLSPGKGGGGGSGGGGSDVQMTQSPSSLSASVGDRVTITCQASQSIGSNLAWYQQKPGKPPKLLIYKGGTLESGVPSRFSGSGSGTDFTLTISSLQPEDFATYYCQSTAGSSRSGNYGYVFGCGTKVTVLGGGGGSGGGGSGGGGSGGGGSQQLVESGGGLVQPGGSLRLSCAASGFSFTNNYYMCWVRQAPGKCLEWIACMLVGAWGNTYYASWANGRFTISKDNSKNTVYLQMNSLRAEDSAVYFCARARDYTWTLGGDPETSGFNLWGQGTLVKVSS
heavy: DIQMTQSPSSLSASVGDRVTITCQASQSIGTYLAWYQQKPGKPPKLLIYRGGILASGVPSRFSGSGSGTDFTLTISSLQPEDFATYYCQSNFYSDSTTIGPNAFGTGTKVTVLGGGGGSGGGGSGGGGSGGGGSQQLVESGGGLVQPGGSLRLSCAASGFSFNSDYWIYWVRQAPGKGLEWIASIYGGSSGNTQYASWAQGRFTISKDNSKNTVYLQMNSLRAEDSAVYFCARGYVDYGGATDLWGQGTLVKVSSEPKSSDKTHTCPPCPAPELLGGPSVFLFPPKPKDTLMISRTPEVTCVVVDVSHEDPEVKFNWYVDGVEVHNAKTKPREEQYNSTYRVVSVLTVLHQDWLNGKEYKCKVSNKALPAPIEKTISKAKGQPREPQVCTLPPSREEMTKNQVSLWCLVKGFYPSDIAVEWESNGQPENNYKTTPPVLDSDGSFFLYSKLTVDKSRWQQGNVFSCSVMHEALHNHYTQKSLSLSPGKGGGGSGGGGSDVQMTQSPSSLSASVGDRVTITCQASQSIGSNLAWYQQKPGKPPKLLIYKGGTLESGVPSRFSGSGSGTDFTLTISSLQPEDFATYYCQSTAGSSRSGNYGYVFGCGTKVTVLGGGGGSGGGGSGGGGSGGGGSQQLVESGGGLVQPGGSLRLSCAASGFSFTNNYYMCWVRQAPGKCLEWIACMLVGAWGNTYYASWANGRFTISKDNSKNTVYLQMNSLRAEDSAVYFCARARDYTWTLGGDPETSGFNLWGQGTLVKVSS
light: DVQMTQSPSSLSASVGDRVTITCQASQSISSWVSWYQQKPGKPPKLLIYRGGYLESGVPSRFSASGSGTDFTLTISSLQPEDFATYYCQSTDSSTYGGAFGQGTKVEIKRTVAAPSVFIFPPSDEQLKSGTASVVCLLNNFYPREAKVQWKVDNALQSGNSQESVTEQDSKDSTYSLSSTLTLSKADYEKHKVYACEVTHQGLSSPVTKSFNRGEC
B3: PRO4683 (antibody, human IgG1, kappa)
chain: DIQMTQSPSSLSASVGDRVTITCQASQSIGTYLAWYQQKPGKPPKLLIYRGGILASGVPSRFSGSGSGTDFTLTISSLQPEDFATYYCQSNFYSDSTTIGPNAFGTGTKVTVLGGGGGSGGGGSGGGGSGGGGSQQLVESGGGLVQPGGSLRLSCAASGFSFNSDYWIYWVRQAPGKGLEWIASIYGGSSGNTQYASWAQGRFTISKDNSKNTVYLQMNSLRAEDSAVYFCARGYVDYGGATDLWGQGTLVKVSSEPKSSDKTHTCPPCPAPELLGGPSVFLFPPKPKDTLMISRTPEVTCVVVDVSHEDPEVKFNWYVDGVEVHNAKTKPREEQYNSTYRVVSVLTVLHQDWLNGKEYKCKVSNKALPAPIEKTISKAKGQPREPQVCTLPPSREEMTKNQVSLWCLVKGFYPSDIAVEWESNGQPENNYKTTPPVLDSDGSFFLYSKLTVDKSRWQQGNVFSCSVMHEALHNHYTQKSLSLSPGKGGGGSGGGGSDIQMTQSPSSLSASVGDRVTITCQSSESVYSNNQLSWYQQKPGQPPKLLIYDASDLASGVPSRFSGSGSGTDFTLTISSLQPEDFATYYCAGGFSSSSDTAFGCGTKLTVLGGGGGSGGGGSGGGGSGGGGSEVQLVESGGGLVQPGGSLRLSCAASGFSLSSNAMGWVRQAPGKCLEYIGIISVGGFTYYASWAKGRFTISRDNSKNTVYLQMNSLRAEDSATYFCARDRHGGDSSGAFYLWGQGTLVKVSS
heavy: QQVVESGGGLVQPGGSLRLSCAVSGIDLNSYAMTWVRQAPGKGLEWIGYIGSASSTYYASWASGRFTISKDNSKNTVYLQMNSLRAEDTAVYFCARGSTYINIWGQGTLVTVSSASTKGPSVFPLAPSSKSTSGGTAALGCLVKDYFPEPVTVSWNSGALTSGVHTFPAVLQSSGLYSLSSVVTVPSSSLGTQTYICNVNHKPSNTKVDKKVEPKSCDKTHTCPPCPAPELLGGPSVFLFPPKPKDTLMISRTPEVTCVVVDVSHEDPEVKFNWYVDGVEVHNAKTKPREEQYNSTYRVVSVLTVLHQDWLNGKEYKCKVSNKALPAPIEKTISKAKGQPREPQVYTLPPCREEMTKNQVSLSCAVKGFYPSDIAVEWESNGQPENNYKTTPPVLDSDGSFFLVSKLTVDKSRWQQGNVFSCSVMHEALHNHYTQKSLSLSPGKGGGGGSGGGGSDIQMTQSPSSLSASVGDRVTITCQSSESVYSNNQLSWYQQKPGQPPKLLIYDASDLASGVPSRFSGSGSGTDFTLTISSLQPEDFATYYCAGGFSSSSDTAFGCGTKLTVLGGGGGSGGGGSGGGGSGGGGSEVQLVESGGGLVQPGGSLRLSCAASGFSLSSNAMGWVRQAPGKCLEYIGIISVGGFTYYASWAKGRFTISRDNSKNTVYLQMNSLRAEDSATYFCARDRHGGDSSGAFYLWGQGTLVKVSS
light: B2 light
B4: PRO4673 (antibody)
chain 1: DVQMTQSPSSLSASVGDRVTITCQASQSISSWVSWYQQKPGKPPKLLIYRGGYLESGVPSRFSASGSGTDFTLTISSLQPEDFATYYCQSTDSSTYGGAFGCGTKVTVLGGGGGSGGGGSGGGGSGGGGSQQVVESGGGLVQPGGSLRLSCAVSGIDLNSYAMTWVRQAPGKCLEWIGYIGSASSTYYASWASGRFTISKDNSKNTVYLQMNSLRAEDSAVYFCARGSTYINIWGQGTLVKVSSEPKSSDKTHTCPPCPAPELLGGPSVFLFPPKPKDTLMISRTPEVTCVVVDVSHEDPEVKFNWYVDGVEVHNAKTKPREEQYNSTYRVVSVLTVLHQDWLNGKEYKCKVSNKALPAPIEKTISKAKGQPREPQVYTLPPCREEMTKNQVSLSCAVKGFYPSDIAVEWESNGQPENNYKTTPPVLDSDGSFFLVSKLTVDKSRWQQGNVFSCSVMHEALHNHYTQKSLSLSPGKGGGGSGGGGSDIQMTQSPSSLSASVGDRVTITCQSSESVYSNNQLSWYQQKPGQPPKLLIYDASDLASGVPSRFSGSGSGTDFTLTISSLQPEDFATYYCAGGFSSSSDTAFGCGTKLTVLGGGGGSGGGGSGGGGSGGGGSEVQLVESGGGLVQPGGSLRLSCAASGFSLSSNAMGWVRQAPGKCLEYIGIISVGGFTYYASWAKGRFTISRDNSKNTVYLQMNSLRAEDSATYFCARDRHGGDSSGAFYLWGQGTLVKVSS
chain 2: not shown
B5: PRO5054 (antibody)
chain 1: DIQMTQSPSSLSASVGDRVTITCQSSESVYSNNQLSWYQQKPGQPPKLLIYDASDLASGVPSRFSGSGSGTDFTLTISSLQPEDFATYYCAGGFSSSSDTAFGCGTKLTVLGGGGGSGGGGSGGGGSGGGGSEVQLVESGGGLVQPGGSLRLSCAASGFSLSSNAMGWVRQAPGKCLEYIGIISVGGFTYYASWAKGRFTISRDNSKNTVYLQMNSLRAEDSATYFCARDRHGGDSSGAFYLWGQGTLVKVSSEPKSSDKTHTCPPCPAPELLGGPSVFLFPPKPKDTLMISRTPEVTCVVVDVSHEDPEVKFNWYVDGVEVHNAKTKPREEQYNSTYRVVSVLTVLHQDWLNGKEYKCKVSNKALPAPIEKTISKAKGQPREPQVYTLPPCREEMTKNQVSLSCAVKGFYPSDIAVEWESNGQPENNYKTTPPVLDSDGSFFLVSKLTVDKSRWQQGNVFSCSVMHEALHNHYTQKSLSLSPGKGGGGSGGGGSDVQMTQSPSSLSASVGDRVTITCQASQSIGSNLAWYQQKPGKPPKLLIYKGGTLESGVPSRFSGSGSGTDFTLTISSLQPEDFATYYCQSTAGSSRSGNYGYVFGCGTKVTVLGGGGGSGGGGSGGGGSGGGGSQQLVESGGGLVQPGGSLRLSCAASGFSFTNNYYMCWVRQAPGKCLEWIACMLVGAWGNTYYASWANGRFTISKDNSKNTVYLQMNSLRAEDSAVYFCARARDYTWTLGGDPETSGFNLWGQGTLVKVSS
chain 2: not shown
B6: PRO5057 (antibody, human IgG1, kappa)
chain: B5 chain 1
heavy: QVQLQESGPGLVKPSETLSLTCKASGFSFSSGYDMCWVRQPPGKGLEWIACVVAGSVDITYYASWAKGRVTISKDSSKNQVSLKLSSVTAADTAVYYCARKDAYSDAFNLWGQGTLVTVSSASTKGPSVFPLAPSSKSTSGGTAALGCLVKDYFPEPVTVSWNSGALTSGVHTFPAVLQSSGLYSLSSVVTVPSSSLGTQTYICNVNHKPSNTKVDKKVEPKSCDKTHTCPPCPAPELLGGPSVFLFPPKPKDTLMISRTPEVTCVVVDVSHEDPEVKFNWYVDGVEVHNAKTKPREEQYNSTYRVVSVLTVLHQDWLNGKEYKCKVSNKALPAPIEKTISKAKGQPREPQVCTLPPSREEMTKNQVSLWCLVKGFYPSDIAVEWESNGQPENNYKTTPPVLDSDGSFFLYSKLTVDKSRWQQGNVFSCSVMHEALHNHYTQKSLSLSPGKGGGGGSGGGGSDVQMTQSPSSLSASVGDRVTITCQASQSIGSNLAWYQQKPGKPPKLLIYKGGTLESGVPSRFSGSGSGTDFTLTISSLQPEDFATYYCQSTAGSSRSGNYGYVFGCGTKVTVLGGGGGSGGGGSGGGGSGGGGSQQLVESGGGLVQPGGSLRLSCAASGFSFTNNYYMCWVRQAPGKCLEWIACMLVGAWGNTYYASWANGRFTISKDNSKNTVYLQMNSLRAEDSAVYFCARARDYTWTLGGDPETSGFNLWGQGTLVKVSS
light: DIQMTQSPSSLSASVGDRVTITCQASQSINDYLAWYQQKPGKAPKLLIYKGGTLASGVPSRFSGSGSGTDFTLTISSLQPEDFATYYCQQGYIITDIDNVFGQGTKVEIKRTVAAPSVFIFPPSDEQLKSGTASVVCLLNNFYPREAKVQWKVDNALQSGNSQESVTEQDSKDSTYSLSSTLTLSKADYEKHKVYACEVTHQGLSSPVTKSFNRGEC
B7: PRO3724 (scFv)
scFv: DIQMTQSPSSLSASVGDRVTITCQASQSINDYLAWYQQKPGKAPKLLIYKGGTLASGVPSRFSGSGSGTDFTLTISSLQPEDFATYYCQQGYIITDIDNVFGTGTKVTVLGGGGGSGGGGSGGGGSGGGGSQVQLQESGPGLVKPSETLSLTCKASGFSFSSGYDMCWVRQPPGKGLEWIACVVAGSVDITYYASWAKGRVTISKDSSKNQVSLKLSSVTAADTAVYYCARKDAYSDAFNLWGQGTLVTVSS
notes: anti-PDL1 scFv
B8: PRO5036 (scFv)
scFv: DIQMTQSPSSLSASVGDRVTITCQASQSIGTYLAWYQQKPGKPPKLLIYRGGILASGVPSRFSGSGSGTDFTLTISSLQPEDFATYYCQSNFYSDSTTIGPNAFGTGTKVTVLGGGGGSGGGGSGGGGSGGGGSQQLVESGGGLVQPGGSLRLSCAASGFSFNSDYWIYWVRQAPGKGLEWIASIYGGSSGNTQYASWAQGRFTISKDNSKNTVYLQMNSLRAEDTAVYFCARGYVDYGGATDLWGQGTLVTVSS
notes: anti-PDL1 scFv
B9: PRO3723 (scFv)
scFv: DIQMTQSPASLSASVGDRVTITCQASQSIGTYLAWYQQKPGKPPKLLIYRGGILASGVPSRFSGSGSGTDFTLTISSLQPEDFATYYCQSNFYSDSTTIGPNAFGTGTKVTVLGGGGGSGGGGSGGGGSGGGGSEVQLVESGGGLVQPGGSLRLSCAASGFSFNSDYWIYWVRQAPGKGLEWIACIYGGSSGNTQYASWAQGRFTISRDNSKNTVYLQMNSLRAEDTAVYFCARGYVDYGGATDLWGQGTLVTVSS
notes: anti-PDL1 scFv

target: human CD47 on the cell surface (human, UniProt Q08722 19-323); test: cell-based or functional assay

| Binder | CD47 driven EC50 [nM], phagocytosis of H292 cells [nM] | CD47 driven EC50 [nM], phagocytosis of RBCs [nM] |
| --- | --- | --- |
| B1 | 25.2 | 37.4 |
| B2 | 9.3 | 2.78 |
| B3 | 5.33 | 2.69 |
| B4 | 11 |  |

target: human PD-L1 on the cell surface (human, UniProt Q9NZQ7 19-290); test: cell-based or functional assay

| Binder | PD-L1 driven EC50 [nM], phagocytosis of H292 cells [nM] |
| --- | --- |
| B1 | 0.071 |
| B2 | 0.14 |
| B3 | 0.19 |
| B4 | 0.18 |
| B5 | 0.09 |
| B6 | 0.13 |

target: T1, recombinant human PDL1 (human, UniProt Q9NZQ7 19-238, limits assumed); test: SPR
T1 construct: SPR antigen; also called CD274; B7-H1

| Binder | Kd [nM] | koff [s⁻¹] | kon [M⁻¹ s⁻¹] |
| --- | --- | --- | --- |
| B7 | 0.012 | 5.7e-05 | 4.7e+06 |
| B8 | 0.034 | 0.00014 | 4e+06 |
| B9 | 0.0258 | 7.95e-05 | 3.08e+06 |

Reference: patent EP4574844A1 (Numab Therapeutics AG, dated 2025)
